Legend:
[1] = anti-Myc Western of HEK293T medium, IgG-normalised; details: glycan lost; control: MMRN1 WT-Myc
[2] = anti-Myc Western of medium, IgG-normalised; details: glycan lost; control: WT HEK293T cells

B1: multimerin-1 (MMRN1): T216A (protein)
parent chain: MKGARLFVLLSSLWSGGIGLNNSKHSWTIPEDGNSQKTMPSASVPPNKIQSLQILPTTRVMSAEIATTPEARTSEDSLLKSTLPPSETSAPAEGVRNQTLTSTEKAEGVVKLQNLTLPTNASIKFNPGAESVVLSNSTLKFLQSFARKSNEQATSLNTVGGTGGIGGVGGTGGVGNRAPRETYLSRGDSSSSQRTDYQKSNFETTRGKNWCAYVHTRLSPTVILDNQVTYVPGGKGPCGWTGGSCPQRSQKISNPVYRMQHKIVTSLDWRCCPGYSGPKCQLRAQEQQSLIHTNQAESHTAVGRGVAEQQQQQGCGDPEVMQKMTDQVNYQAMKLTLLQKKIDNISLTVNDVRNTYSSLEGKVSEDKSREFQSLLKGLKSKSINVLIRDIVREQFKIFQNDMQETVAQLFKTVSSLSEDLESTRQIIQKVNESVVSIAAQQKFVLVQENRPTLTDIVELRNHIVNVRQEMTLTCEKPIKELEVKQTHLEGALEQEHSRSILYYESLNKTLSKLKEVHEQLLSTEQVSDQKNAPAAESVSNNVTEYMSTLHENIKKQSLMMLQMFEDLHIQESKINNLTVSLEMEKESLRGECEDMLSKCRNDFKFQLKDTEENLHVLNQTLAEVLFPMDNKMDKMSEQLNDLTYDMEILQPLLEQGASLRQTMTYEQPKEAIVIRKKIENLTSAVNSLNFIIKELTKRHNLLRNEVQGRDDALERRINEYALEMEDGLNKTMTIINNAIDFIQDNYALKETLSTIKDNSEIHHKCTSDMETILTFIPQFHRLNDSIQTLVNDNQRYNFVLQVAKTLAGIPRDEKLNQSNFQKMYQMFNETTSQVRKYQQNMSHLEEKLLLTTKISKNFETRLQDIESKVTQTLIPYYISVKKGSVVTNERDQALQLQVLNSRFKALEAKSIHLSINFFSLNKTLHEVLTMCHNASTSVSELNATIPKWIKHSLPDIQLLQKGLTEFVEPIIQIKTQAALSNLTCCIDRSLPGSLANVVKSQKQVKSLPKKINALKKPTVNLTTVLIGRTQRNTDNIIYPEEYSSCSRHPCQNGGTCINGRTSFTCACRHPFTGDNCTIKLVEENALAPDFSKGSYRYAPMVAFFASHTYGMTIPGPILFNNLDVNYGASYTPRTGKFRIPYLGVYVFKYTIESFSAHISGFLVVDGIDKLAFESENINSEIHCDRVLTGDALLELNYGQEVWLRLAKGTIPAKFPPVTTFSGYLLYRT
Q: Which expression_or_secretion [1] does the source give for B1 here?
A: decreases

B2: multimerin-1 (MMRN1): POFUT2 KO (protein)
parent chain: MKGARLFVLLSSLWSGGIGLNNSKHSWTIPEDGNSQKTMPSASVPPNKIQSLQILPTTRVMSAEIATTPEARTSEDSLLKSTLPPSETSAPAEGVRNQTLTSTEKAEGVVKLQNLTLPTNASIKFNPGAESVVLSNSTLKFLQSFARKSNEQATSLNTVGGTGGIGGVGGTGGVGNRAPRETYLSRGDSSSSQRTDYQKSNFETTRGKNWCAYVHTRLSPTVILDNQVTYVPGGKGPCGWTGGSCPQRSQKISNPVYRMQHKIVTSLDWRCCPGYSGPKCQLRAQEQQSLIHTNQAESHTAVGRGVAEQQQQQGCGDPEVMQKMTDQVNYQAMKLTLLQKKIDNISLTVNDVRNTYSSLEGKVSEDKSREFQSLLKGLKSKSINVLIRDIVREQFKIFQNDMQETVAQLFKTVSSLSEDLESTRQIIQKVNESVVSIAAQQKFVLVQENRPTLTDIVELRNHIVNVRQEMTLTCEKPIKELEVKQTHLEGALEQEHSRSILYYESLNKTLSKLKEVHEQLLSTEQVSDQKNAPAAESVSNNVTEYMSTLHENIKKQSLMMLQMFEDLHIQESKINNLTVSLEMEKESLRGECEDMLSKCRNDFKFQLKDTEENLHVLNQTLAEVLFPMDNKMDKMSEQLNDLTYDMEILQPLLEQGASLRQTMTYEQPKEAIVIRKKIENLTSAVNSLNFIIKELTKRHNLLRNEVQGRDDALERRINEYALEMEDGLNKTMTIINNAIDFIQDNYALKETLSTIKDNSEIHHKCTSDMETILTFIPQFHRLNDSIQTLVNDNQRYNFVLQVAKTLAGIPRDEKLNQSNFQKMYQMFNETTSQVRKYQQNMSHLEEKLLLTTKISKNFETRLQDIESKVTQTLIPYYISVKKGSVVTNERDQALQLQVLNSRFKALEAKSIHLSINFFSLNKTLHEVLTMCHNASTSVSELNATIPKWIKHSLPDIQLLQKGLTEFVEPIIQIKTQAALSNLTCCIDRSLPGSLANVVKSQKQVKSLPKKINALKKPTVNLTTVLIGRTQRNTDNIIYPEEYSSCSRHPCQNGGTCINGRTSFTCACRHPFTGDNCTIKLVEENALAPDFSKGSYRYAPMVAFFASHTYGMTIPGPILFNNLDVNYGASYTPRTGKFRIPYLGVYVFKYTIESFSAHISGFLVVDGIDKLAFESENINSEIHCDRVLTGDALLELNYGQEVWLRLAKGTIPAKFPPVTTFSGYLLYRT
Q: With B2 as the protein, how does the expression_or_secretion [2] read?
A: no change

B3: multimerin-1 (MMRN1): POFUT1 KO (protein)
parent chain: MKGARLFVLLSSLWSGGIGLNNSKHSWTIPEDGNSQKTMPSASVPPNKIQSLQILPTTRVMSAEIATTPEARTSEDSLLKSTLPPSETSAPAEGVRNQTLTSTEKAEGVVKLQNLTLPTNASIKFNPGAESVVLSNSTLKFLQSFARKSNEQATSLNTVGGTGGIGGVGGTGGVGNRAPRETYLSRGDSSSSQRTDYQKSNFETTRGKNWCAYVHTRLSPTVILDNQVTYVPGGKGPCGWTGGSCPQRSQKISNPVYRMQHKIVTSLDWRCCPGYSGPKCQLRAQEQQSLIHTNQAESHTAVGRGVAEQQQQQGCGDPEVMQKMTDQVNYQAMKLTLLQKKIDNISLTVNDVRNTYSSLEGKVSEDKSREFQSLLKGLKSKSINVLIRDIVREQFKIFQNDMQETVAQLFKTVSSLSEDLESTRQIIQKVNESVVSIAAQQKFVLVQENRPTLTDIVELRNHIVNVRQEMTLTCEKPIKELEVKQTHLEGALEQEHSRSILYYESLNKTLSKLKEVHEQLLSTEQVSDQKNAPAAESVSNNVTEYMSTLHENIKKQSLMMLQMFEDLHIQESKINNLTVSLEMEKESLRGECEDMLSKCRNDFKFQLKDTEENLHVLNQTLAEVLFPMDNKMDKMSEQLNDLTYDMEILQPLLEQGASLRQTMTYEQPKEAIVIRKKIENLTSAVNSLNFIIKELTKRHNLLRNEVQGRDDALERRINEYALEMEDGLNKTMTIINNAIDFIQDNYALKETLSTIKDNSEIHHKCTSDMETILTFIPQFHRLNDSIQTLVNDNQRYNFVLQVAKTLAGIPRDEKLNQSNFQKMYQMFNETTSQVRKYQQNMSHLEEKLLLTTKISKNFETRLQDIESKVTQTLIPYYISVKKGSVVTNERDQALQLQVLNSRFKALEAKSIHLSINFFSLNKTLHEVLTMCHNASTSVSELNATIPKWIKHSLPDIQLLQKGLTEFVEPIIQIKTQAALSNLTCCIDRSLPGSLANVVKSQKQVKSLPKKINALKKPTVNLTTVLIGRTQRNTDNIIYPEEYSSCSRHPCQNGGTCINGRTSFTCACRHPFTGDNCTIKLVEENALAPDFSKGSYRYAPMVAFFASHTYGMTIPGPILFNNLDVNYGASYTPRTGKFRIPYLGVYVFKYTIESFSAHISGFLVVDGIDKLAFESENINSEIHCDRVLTGDALLELNYGQEVWLRLAKGTIPAKFPPVTTFSGYLLYRT
Q: For B3, which expression_or_secretion [2] is on record?
A: abolishes

B4: multimerin-1 (MMRN1): T1055A (protein)
parent chain: MKGARLFVLLSSLWSGGIGLNNSKHSWTIPEDGNSQKTMPSASVPPNKIQSLQILPTTRVMSAEIATTPEARTSEDSLLKSTLPPSETSAPAEGVRNQTLTSTEKAEGVVKLQNLTLPTNASIKFNPGAESVVLSNSTLKFLQSFARKSNEQATSLNTVGGTGGIGGVGGTGGVGNRAPRETYLSRGDSSSSQRTDYQKSNFETTRGKNWCAYVHTRLSPTVILDNQVTYVPGGKGPCGWTGGSCPQRSQKISNPVYRMQHKIVTSLDWRCCPGYSGPKCQLRAQEQQSLIHTNQAESHTAVGRGVAEQQQQQGCGDPEVMQKMTDQVNYQAMKLTLLQKKIDNISLTVNDVRNTYSSLEGKVSEDKSREFQSLLKGLKSKSINVLIRDIVREQFKIFQNDMQETVAQLFKTVSSLSEDLESTRQIIQKVNESVVSIAAQQKFVLVQENRPTLTDIVELRNHIVNVRQEMTLTCEKPIKELEVKQTHLEGALEQEHSRSILYYESLNKTLSKLKEVHEQLLSTEQVSDQKNAPAAESVSNNVTEYMSTLHENIKKQSLMMLQMFEDLHIQESKINNLTVSLEMEKESLRGECEDMLSKCRNDFKFQLKDTEENLHVLNQTLAEVLFPMDNKMDKMSEQLNDLTYDMEILQPLLEQGASLRQTMTYEQPKEAIVIRKKIENLTSAVNSLNFIIKELTKRHNLLRNEVQGRDDALERRINEYALEMEDGLNKTMTIINNAIDFIQDNYALKETLSTIKDNSEIHHKCTSDMETILTFIPQFHRLNDSIQTLVNDNQRYNFVLQVAKTLAGIPRDEKLNQSNFQKMYQMFNETTSQVRKYQQNMSHLEEKLLLTTKISKNFETRLQDIESKVTQTLIPYYISVKKGSVVTNERDQALQLQVLNSRFKALEAKSIHLSINFFSLNKTLHEVLTMCHNASTSVSELNATIPKWIKHSLPDIQLLQKGLTEFVEPIIQIKTQAALSNLTCCIDRSLPGSLANVVKSQKQVKSLPKKINALKKPTVNLTTVLIGRTQRNTDNIIYPEEYSSCSRHPCQNGGTCINGRTSFTCACRHPFTGDNCTIKLVEENALAPDFSKGSYRYAPMVAFFASHTYGMTIPGPILFNNLDVNYGASYTPRTGKFRIPYLGVYVFKYTIESFSAHISGFLVVDGIDKLAFESENINSEIHCDRVLTGDALLELNYGQEVWLRLAKGTIPAKFPPVTTFSGYLLYRT
Q: For B4, which expression_or_secretion [1] is on record?
A: decreases

From publication PMC10879016
